The results in this text go back to PMC11650997 (Journal of Virology, 2024).

Holding throughout (details): both partners purified
Experiment [1] concerns the target T1, SARS-CoV-2 RBD (aa 334-527) (Severe acute respiratory syndrome …, UniProt P0DTC2).
T1 construct: also called recombinant RBD; monomeric RBD
The experiment can be described thus: SPR.

Experiment [2] has as its target RaTG13 S protein ectodomain (Bat coronavirus RaTG13 (MN996532), UniProt A0ABF7PLN6). Briefly: ELISA; […], room temperature; […]. In general terms: In an ELISA, binding on a coated surface is turned into a signal by an enzyme label.
The target of experiment [3] is RsSHC014 S protein ectodomain (Bat SARS-like coronavirus RsSHC014 …, UniProt U5WLK5). Briefly: ELISA; […], room temperature; […].
In experiment [4] the target is T2, BM48-31 S protein ectodomain (Bat coronavirus BM48-31/BGR/2008 …).
T2 construct: also called sarbecovirus BM48-31 S protein
The experiment can be described thus: ELISA; […], room temperature; […].

Experiment [5] deals with CoVZC45 S protein ectodomain (Bat SARS-like coronavirus CoVZC45 …, UniProt A0A2R3SUW7). Briefly: ELISA; […], room temperature; […].
Experiment [6] deals with WIV-1 S protein ectodomain (Bat SARS-like coronavirus WIV1 …, UniProt U5WI05). Briefly: ELISA; […], room temperature; […].
Experiment [7] concerns the target T3, HKU3-1 S protein ectodomain (Bat SARS coronavirus HKU3-1 (DQ022305), UniProt Q3LZX1).
T3 construct: source: Drosophila S2 cells, secreted, purified (Strep-Tactin XT, Superose 6 SEC)
The experiment can be described thus: ELISA; […], room temperature; […].

B1: pT1616 (human monoclonal antibody, IgG1) (antibody, V domains shown)
VH: QVQLVQSGAEVKKPGSSVKVSCKASGGTFSSYTISWVRQAPGQGLECMGRIIPILGIANYAQKFQGRVTITADKSTSIAYMEVSSLRSEDTAVYYCATEVGYSGYGSAEYFNHWGQGTPVTVSS
VL: QSVLTQPPSVSGAPGQRVTISCTGSNSNIGAGYDVHWYQQLPGTAPKLLIYANNNRPSGVPDRFSGSRSGTSASLVITGLQADDEADYYCQSYDSSLTGSLFGGGTKLTVL
notes: also called bnAb pT1616; nAb pT1616; source: HEK293ExPi, transfected, purified from the supernatant (Protein G, SEC)
In experiment [1], B1 came in with a Kd of 240 pM, a koff of 0.00019 s⁻¹ and a kon of 780000 M⁻¹ s⁻¹.

B2: pT1616 IgG1 (antibody, V domains shown)
VH: QVQLVQSGAEVKKPGSSVKVSCKASGGTFSSYTISWVRQAPGQGLECMGRIIPILGIANYAQKFQGRVTITADKSTSIAYMEVSSLRSEDTAVYYCATEVGYSGYGSAEYFNHWGQGTPVTVSS
VL: QSVLTQPPSVSGAPGQRVTISCTGSNSNIGAGYDVHWYQQLPGTAPKLLIYANNNRPSGVPDRFSGSRSGTSASLVITGLQADDEADYYCQSYDSSLTGSLFGGGTKLTVL
notes: also called bnAb pT1616; nAb pT1616; source: HEK293ExPi, transfected, purified from supernatant (Protein G, SEC)
As to B2, the binding result is given as “binds” in experiment [2]; “binds” in experiment [3]; “no binding (tested: 2 µg/mL antibody)” in experiment [4]; “binds” in experiment [5]; “binds” in experiment [6]; “binds” in experiment [7].

For orientation: Kd means the constant that tells how readily two partners part at equilibrium. What is called koff is a measure of how fast the partners let go of each other. Lower therefore signals a long-lived complex. In general, kon refers to the rate constant with which the complex forms.
